From patent US7273747B2, “Cell having amplified signal transduction pathway responses and uses therefor” (Cadus Technologies, Inc., priority 1998, dated 2007)
Square brackets hold non-standard residues; d marks the D form. Ends that are not written are not given here. NMeF = CN[C@@H](Cc1ccccc1)C(=O)O; Cha = N[C@@H](CC1CCCCC1)C(=O)O; dCha = N[C@H](CC1CCCCC1)C(=O)O

Biological target: T1, C5a receptor (Homo sapiens, UniProt P21730)
T1 construct: expressed in transfected cells; host or cells: Saccharomyces cerevisiae strain CY10103 (sibling strains CY13970/13971 and CY13974/13975), carrying gpa1(41)-Gαi2, with a FUS1p-lacZ reporter plasmid
T1 sequence (P21730 1-350): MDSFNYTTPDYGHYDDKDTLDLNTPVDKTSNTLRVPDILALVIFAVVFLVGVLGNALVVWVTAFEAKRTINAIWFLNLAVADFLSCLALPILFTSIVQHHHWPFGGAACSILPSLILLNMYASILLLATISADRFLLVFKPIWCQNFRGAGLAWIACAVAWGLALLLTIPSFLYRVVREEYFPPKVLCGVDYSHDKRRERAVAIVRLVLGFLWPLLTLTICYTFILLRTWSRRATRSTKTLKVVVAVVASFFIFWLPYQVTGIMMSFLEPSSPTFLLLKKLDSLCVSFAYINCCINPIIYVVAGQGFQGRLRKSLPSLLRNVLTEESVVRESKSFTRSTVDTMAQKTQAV
Test: FUS1p-lacZ β-galactosidase reporter assay in yeast expressing a heterologous C5a receptor
Format: cell-based
Conditions: yeast strains carrying C5a receptor plasmid and FUS1p-lacZ reporter; 4 hours incubation with varying concentrations of ChaCha
Source text: Yeast strains expressing heterologous GPCRs can be constructed as previously described (see e.g. WO 94/23025). In this example, to create a yeast strain expressing a heterologous GPCR and a Ste5 expression plasmid, yeast strain CY10103 (genotype MATa ste18 g6-3841 far1D1442 cyh2 tbt1-1 FUS1p-HIS3 can1 ste14::trp1::LYS2 ste3D1156 gpa1(41)-Gαi2 lys2 ura3 leu2 trp1 his3 ade2D3447 ade8D3457) was transformed by electroporation with a C5a receptor-bearing plasmid (Cp1303; genotype LEU2 PGKp-C5aR 2m-ori REP3 bla), a reporter plasmid (Cp1584; genotype bla TRP1 2m-ori FUS1p-lacZ), and plasmids that express either wild-type STE5p (Cp5373; genotype URA3 CEN6 ARSH4 bla FUS1p-STE5), a hyperactive STE5p mutant (Cp5643; genotype URA3 CEN6 ARSH4 bla FUS1p-STE5(S18R,T52M)), or no STE5p (Cp1015; genotype URA3 CEN6 ARSH4 bla). Triple transformants were selected on SC plates lacking uracil, tryptophan, and leucine. […]

N-methyl-Phe-Lys-Pro-dCha-Cha-dArg ([NMeF]KP[dCha][Cha][dR]) [ChaCha, C5a receptor ligand; Cha is cyclohexylalanine]
responsiveness to ligand, monitored as β-galactosidase activity (agonist activity at the C5a receptor): potent agonist
